# B1: miR-26a chimera: mouse c-Kit DNA aptamer-C3-passenger RNA, passenger RNA-TEG-cholesterol and miR-26a-5p guide strand annealed (SEQ ID NO:6/7, 8, 9) (nucleic acid)
# chain 1: GCTCAACGCGGGACGGCTCTCCCATTGAC
# chain 2: CCUAUUCUGG
# chain 3: GUUACUUGCACG
# guide: UUCAAGUAAUCCAGGAUAGGCU
# modifications: chemistry not fully specified
# Assays:
# hematopoiesis = experiment: Carboplatin-induced myelosuppression in mice; format: in vivo, mouse
# Description: For xenograft models, the NSG mice and BALB/c mice were subcutaneously injected with 2×10^6 viable MDA-MB-231 cells and TUBO cells in their right hind limbs, respectively. After the tumor grew to 1 cm in diameter, mice were randomly divided into the groups for each treatment. For no treatment control, 100 μl saline with 1% mouse serum was intravenously injected through tail vein. For treatment groups, 670 pmol/20 g chimeras and/or 5(0 mg/kg 5-fluorouracil (5-FU), or 120 mg/kg carboplatin were also intravenously injected. Tumor sizes were measured in two dimensions every 3 days. Tumor volume (V) was calculated using the following formula: V=(½) S^2×L (S. the shortest dimension; L, the longest dimension). Animals were euthanized when the tumor size was over 2 cm diameters, tumor ulcerated, or became necrotic. For chimera treatment in normal mice, C57BL/6 mice were treated with miR-26a chimera (670 pmol/20 g) everyday for 3 days by intravenous injection. At day 2, 150 mg/kg 5-FU and/or 120 mg/kg carboplatin was injected together with the chimera. Peripheral bloods were collected at day 5 and day 10 after the 5-FU treatment. Complete blood counts were measured by Hemavet 950FS (Drew Scientific, Miami Lakes, Fla., USA).
# TUBO cells = experiment: Binding to TUBO cells by flow cytometry; set-up: species or system mouse; details: biotinylated
# Description: DNA sequences for anti-human KIT aptamer (21) and mouse c-Kit aptamers (22) conjugated with biotin at 3′ were functionalized by short denaturation-renaturation step (95° C. 10 min, 5 min snap-cooling on ice). These DNA sequences were 5′-[…] […]-3′ (SEQ ID NO: 2) for human KIT, 5′-[…]-3′ (SEQ ID NO:3) for mouse c-Kit. These activated aptamers were used for binding assay to the cell lines by flow cytometry. For chimera preparation, human KIT-aptamer or mouse c-Kit-aptamer miR-26a chimera was assembled by three compartments of DNA/RNA hybrid sequences. The sequences were 5′-[…] […]/C3 (SEQ ID NO:4) spacer/CCUAUUCUGG-3′(SEQ ID NO:5) for human KIT aptamer+the part of passenger sequence for miR-26a-5p, 5′-[…]/C3 (SEQ ID NO:6) spacer/CCUAUUCUGG-3′ (SEQ ID NO:7) for mouse cKit aptamer+the part of passenger sequence for miR-26a-5p, 5′-GUUACUUGCACG/TEG (triethylene glycol)-Cholesterol-3′ (SEQ ID NO:8) for the part of sequence for miR-26a-5p+cholesterol, and 5′-[…]-3′ (SEQ ID NO:9) for guide sequence for miR-26a-5p (RNA sequences were represented as italic). The guide sequence for scramble control was […] (SEQ ID NO:10). To protect the oligonucleotide sequences from nuclease degradation, phosphorothioate bonds were introduced between the last 3 nucleotides at the 5′-end of DNA aptamers. The RNA sequences were modified with 2′-fluoro-uridines. […]
# [1] = Plasma levels and in vivo imaging of miR-26a chimera in TUBO tumor-bearing BALB/c mice; set-up: species or system mouse; details: 670 pmol single intravenous dose, qPCR
# Description: FIG. 8A is a graph showing the pharmacokinetics of plasma levels of miR-26a chimera and the single dose administration in BALB/c mice bearing mouse TUBO breast cancer cell line. miR-26a chimera (670 pmol/20 g) was injected intravenously. Blood samples were collected at the indicated time points. The concentrations of miR-26a were determined by quantitative PCR using standard curve generated with dose-titrated miR-26a chimera. Data were pooled from three experiments, involving a total of 3 mice. FIG. 8B is a series of pictures showing in vivo imaging of miR-26a chimera conjugated with AF647 dye in BALB/c mice bearing tumor with TUBO cell line. A single dose of miR-26a chimera (670 pmol/20 g) was intravenously injected and followed by serial fluorescence imaging at the indicated time points by IVIS spectrum (Caliper LifeSciences, Waltham, Mass.). Data shown are series images from one experiment. Similar data were obtained from another experiment.
molecule,measurement,setting,value
B1,carboplatin-induced myelosuppression (figure title),"hematopoiesis; 670 pmol/20 g i.v. daily for 3 days, FIG. 6",protects mice against carboplatin-induced myelosuppression
same,carboplatin-induced reduction in WBC and RBC,hematopoiesis; 3 daily injections of chimera,prevented reduction in WBC and RBC
same,carboplatin-induced reduction of platelet on day 5,hematopoiesis; 3 daily injections of chimera,not prevented
same,drop of platelets from day 5 to day 10,hematopoiesis; 3 daily injections of chimera,prevented further drop of platelets
same,binding to TUBO cells,TUBO cells,nearly identical levels comparable to an anti-c-Kit antibody
same,time miR-26a chimera could be detected in the blood after injection,[1],≤ 8 h

# — patent publication US20200171068A1, “COMPOSITIONS COMPRISING APTAMERS AND NUCLEIC ACID PAYLOADS AND METHODS OF USING THE SAME” (Children's National Medical Center, priority 2017, published 2020)
